Source: PMC10585395

Molecular target: Regulatory ATPase variant A (RavA) (E. coli) (UniProt P31473)

ATPase activity of 0.5 uM RavA with equimolar full-length ViaA (ATP-NADH coupled assay): 3 fold
B1: von Willebrand factor type A interacting with AAA+ ATPase (ViaA) (natural protein)
chain: MLTLDTLNVMLAVSEEGLIEEMIIALLASPQLAVFFEKFPRLKAAITDDVPRWREALRSRLKDARVPPELTEEVMCYQQSQLLSTPQFIVQLPQILDLLHRLNSPWAEQARQLVDANSTITSALHTLFLQRWRLSLIVQATTLNQQLLEEEREQLLSEVQERMTLSGQLEPILADNNTAAGRLWDMSAGQLKRGDYQLIVKYGEFLNEQPELKRLAEQLGRSREAKSIPRNDAQMETFRTMVREPATVPEQVDGLQQSDDILRLLPPELATLGITELEYEFYRRLVEKQLLTYRLHGESWREKVIERPVVHKDYDEQPRGPFIVCVDTSGSMGGFNEQCAKAFCLALMRIALAENRRCYIMLFSTEIVRYELSGPQGIEQAIRFLSQQFRGGTDLASCFRAIMERLQSREWFDADAVVISDFIAQRLPDDVTSKVKELQRVHQHRFHAVAMSAHGKPGIMRIFDHIWRFDTGMRSRLLRRWRR
